This note sets out measurements from US20190033318A1 (UNIVERSITY OF SOUTHAMPTON, published 2019).

Data set [1] deals with T1, Trx-1α (thioredoxin-tagged HIF-1α 1-350, bHLH-PASA-PASB) (UniProt Q16665 1-350).
T1 construct: range 1-350; not shown: Thioredoxin-His6 tag of vector pET32
Nature of the data set: ELISA, Trx-1α on Ni plate, inhibition of GST-1β binding. Here is the method: (§1) IC₅₀ values for the compound=3.7 μM/8.8 μM for 1α/2α.
(§2) 25 μL of His-tagged HIF-α protein (either Trx-1α, Trx-2α, 1α PASB, or 2α PASB) at 0.1 μM in HIF assay buffer were added to individual wells of a Pierce Ni²⁺-coated 96-well plate (Thermo) in triplicate. The plate was rocked gently at room temperature for 1 hr, before washing with 3×200 μL assay buffer (5 min incubation per wash). 25 μL of compounds and/or DMSO at the stated concentrations were added to the plate and allowed to equilibrate for 30 min prior to the addition of 25 μL of GST-1β at 0.2 μM in assay buffer for 1 hr. For conditions in which no compound or DMSO were used, GST-1β was added as a 0.1 μM solution. After incubation with GST-1β, the wells were washed with 3×200 μL assay buffer then 1×200 μL PBS. The wells were then incubated with 100 μL mouse α-GST antibody (Thermo, MS-707-P) at a 1/1000 dilution in PBS supplemented with 0.1% Tween-20 (PBST) and 2% non-fat powdered milk (Marvel) for 1 hr, followed by 3×200 μL washed with PBS. 100 μL of secondary HRP-conjugated α-mouse antibody (GE Healthcare) was added at a 1/6000 dilution in 2% milk/PBST for 1 hr, then washed with 3×200 μL PBS. […] Absorbance was read at 450 nm using a Tecan Infinite M200 Pro plate reader. Data were fitted and IC₅₀ values determined by non-linear regression using GraphPad Prism 6.

The target of data set [2] is T2, Trx-2α (thioredoxin-tagged HIF-2α 1-360, bHLH-PASA-PASB) (UniProt Q99814 1-360).
T2 construct: range 1-360; not shown: Thioredoxin-His6 tag of vector pET32
Nature of the data set: ELISA, Trx-2α on Ni plate, inhibition of GST-1β binding. Here is the method: as §1, §2

The target of data set [3] is T1, Trx-1α (thioredoxin-tagged HIF-1α …). Nature of the data set: thermal shift assay, 1 mM peptide. The procedure:
(§3) Thermal denaturation of HIF proteins was performed in 20 μL reactions in triplicate using a Bio-Rad CFX Connect Real-Time System. Proteins were used at either 5 μM (Trx-1α, Trx-2α and GST-1β) or 15 μM (His-tagged PASB domains) in HIF assay buffer, with 10 mM DTT and SYPRO orange dye (Life Technologies) at a final concentration of 8×(relative to 5000×stock), and supplemented with either DMSO or compound dissolved in DMSO at the stated concentrations. The reaction plate was assembled on ice, then transferred to the pre-chilled thermal cycler, held at 10° C. for 5 min (heated lid, 105° C.), then the temperature ramped to 95° C. Fluorescence was recorded at 0.5° C. increments, holding for 5 sec at each temperature. Data were plotted using GraphPad Prism 6, and melting temperatures calculated using the first derivative method in which the peak (i.e. the steepest transition between data points) represents the point at which 50% of the protein sample is denatured. Errors are quoted as the inherent error associated with the first derivative of the data, i.e. ±0.25° C. for Tₘ values and ±0.5° C. for ΔTₘ values.

The target in data set [4] is T3, 1α PASB (HIF-1α PASB domain, 238-349) (UniProt Q16665 238-349, labelled with NT-647-NHS dye in MST).
T3 construct: range 238-349; not shown: His6 tag of vector pET28, then Met
Nature of the data set: thermal shift assay, 1 mM peptide. Here is the method: as §3

Data set [5] concerns the target T4, 2α PASB (HIF-2α PASB domain, 240-350) (UniProt Q99814 240-350, labelled with NT-647-NHS dye in MST; 15N (and 13C 15N) labelled in NMR).
T4 construct: range 240-350; also called PAS B domain of HIF-2α; not shown: His6 tag of vector pET28, then Met
Nature of the data set: thermal shift assay, 1 mM peptide. The procedure: as §3

Data set [6] concerns the target T2, Trx-2α (thioredoxin-tagged HIF-2α …). Nature of the data set: thermal shift assay, 1 mM peptide. Here is the method:
as §3

Data set [7] concerns the target T5, 1β PASB (HIF-1β PASB domain, 356-474) (UniProt P27540 356-474).
T5 construct: range 356-474; not shown: His6 tag of vector pET28
Nature of the data set: thermal shift assay, 1 mM peptide. The procedure:
as §3

Data set [8] deals with T4, 2α PASB (HIF-2α PASB domain, 240-350). Nature of the data set: MST, peptide titrated into fluorescently labelled 2α PASB. The procedure: (§4) Microscale thermophoresis (MST) was performed to determine Kd of peptide binding to fluorescently labelled HIF-1α/2α PASB domains.
(§5) 0.5 mL of 1α or 2α PASB protein stocks in HIF storage/assay buffer were dialysed against 1 L of MST labelling buffer (100 mM NaHCO₃ pH 8, 150 mM NaCl and 5% glycerol) for 1.5 hr at 4° C., then against 1 L of fresh labelling buffer at 4° C. overnight. 100 μL of each dialysed protein diluted to 10 μM were incubated with 100 μL of 30 μM NT-647-NHS dye (NanoTemper protein labelling kit) for 20 min in the dark, then exchanged into 650 μL HIF assay buffer supplemented with 0.05% Tween-20 using the supplied gravity flow purification columns. A dilution series of cyclo-CRVIIF (SEQ ID NO 4) or alanine scan analogues (in HIF assay buffer, 10% DMSO) was mixed with equal volumes of labelled 1α PASB or 2α PASB at 100 nM and allowed to equilibrate for 10 min. Samples were loaded into hydrophilic capillaries and, after optimising the power, MST was performed using a Monolith […] instrument (NanoTemper). Data were analysed using NT Analysis Software using the Temperature Jump analysis mode.

The target of data set [9] is T3, 1α PASB (HIF-1α PASB domain, 238-349). Nature of the data set: MST, peptide titrated into fluorescently labelled 1α PASB. The procedure:
as §4, §5

Data set [10] concerns the target T6, HIF-2α (construct not given) (UniProt Q99814 1-360, limits assumed).
T6 construct: also called HIF-2 ELISA
Nature of the data set: HIF-2 ELISA, inhibition of HIF-2α/HIF-1β dimerisation. The procedure:
(§6) 25 μL of His-tagged HIF-α protein (either Trx-1α, Trx-2α, 1α PASB, or 2α PASB) at 0.1 μM in HIF assay buffer were added to individual wells of a Pierce Ni²⁺-coated 96-well plate (Thermo) in triplicate. The plate was rocked gently at room temperature for 1 hr, before washing with 3×200 μL assay buffer (5 min incubation per wash). 25 μL of compounds and/or DMSO at the stated concentrations were added to the plate and allowed to equilibrate for 30 min prior to the addition of 25 μL of GST-1β at 0.2 μM in assay buffer for 1 hr. For conditions in which no compound or DMSO were used, GST-1β was added as a 0.1 μM solution. After incubation with GST-1β, the wells were washed with 3×200 μL assay buffer then 1×200 μL PBS. The wells were then incubated with 100 μL mouse α-GST antibody (Thermo, MS-707-P) at a 1/1000 dilution in PBS supplemented with 0.1% Tween-20 (PBST) and 2% non-fat powdered milk (Marvel) for 1 hr, followed by 3×200 μL washed with PBS. 100 μL of secondary HRP-conjugated α-mouse antibody (GE Healthcare) was added at a 1/6000 dilution in 2% milk/PBST for 1 hr, then washed with 3×200 μL PBS. Wells were incubated with 100 μL of 1-Step Ultra TMB-ELISA solution (Thermo) until a blue colour developed (typically 10-15 min) and the reaction was stopped by the addition of 100 μL of a ⅕ dilution of conc. H₂SO₄, which turned the solution yellow. Absorbance was read at 450 nm using a Tecan Infinite M200 Pro plate reader. Data were fitted and IC₅₀ values determined by non-linear regression using GraphPad Prism 6.

In data set [11] the target is T7, HIF-1α (construct not given) (UniProt Q16665 1-350, limits assumed).
T7 construct: also called HIF-1 ELISA
Nature of the data set: HIF-1 ELISA, inhibition of HIF-1α/HIF-1β dimerisation. The procedure: as §6

For data set [12], the target named is T3, 1α PASB (HIF-1α PASB domain, 238-349). Nature of the data set: MST, HIF-1α PASB domain.
Data set [13] deals with T1, Trx-1α (thioredoxin-tagged HIF-1α …). Nature of the data set: competition ELISA: His-tagged Trx-1α on Ni plate, peptide titrated, binding of GST-1β (blocked partner) detected with anti-GST, A450. Here is the method: as §1, §2
For data set [14], the target named is T4, 2α PASB (HIF-2α PASB domain, 240-350). Nature of the data set: MST, HIF-2α PASB domain.
The target of data set [15] is T2, Trx-2α (thioredoxin-tagged HIF-2α …). Nature of the data set: competition ELISA: His-tagged Trx-2α on Ni plate, peptide titrated, binding of GST-1β (blocked partner) detected with anti-GST, A450. Here is the method:
as §1, §2

Data set [16] has as its target T4, 2α PASB (HIF-2α PASB domain, 240-350). Nature of the data set: ELISA, 2α PASB on Ni plate, inhibition of GST-1β binding. The procedure: (§7) ELISA assays were conducted using 1α/2α PASB domains.
as §2

In data set [17] the target is T3, 1α PASB (HIF-1α PASB domain, 238-349). Nature of the data set: ELISA, 1α PASB on Ni plate, inhibition of GST-1β binding. Here is the method:
as §7, §2

Data set [18] has the same target. Nature of the data set: competition ELISA: 1α PASB on Ni plate, peptide titrated, blocked partner GST-1β; the value stands in the panel without a name, the ELISA fits give IC50. The procedure: as §2
Data set [19] has as its target T4, 2α PASB (HIF-2α PASB domain, 240-350). Nature of the data set: competition ELISA: 2α PASB on Ni plate, peptide titrated, blocked partner GST-1β; the value stands in the panel without a name, the ELISA fits give IC50. The procedure: as §2
For data set [20], the target named is T3, 1α PASB (HIF-1α PASB domain, 238-349). Nature of the data set: competition ELISA: 1α PASB on Ni plate, peptide titrated, blocked partner GST-1β; the value stands in the panel without a name, the ELISA fits give IC50; the fall is only partial. Here is the method: as §2
For data set [21], the target named is T4, 2α PASB (HIF-2α PASB domain, 240-350). Nature of the data set: competition ELISA: 2α PASB on Ni plate, peptide titrated, blocked partner GST-1β; the value stands in the panel without a name, the ELISA fits give IC50; the fall is only partial. Here is the method: as §2

T2 sequence (Q99814 1-360): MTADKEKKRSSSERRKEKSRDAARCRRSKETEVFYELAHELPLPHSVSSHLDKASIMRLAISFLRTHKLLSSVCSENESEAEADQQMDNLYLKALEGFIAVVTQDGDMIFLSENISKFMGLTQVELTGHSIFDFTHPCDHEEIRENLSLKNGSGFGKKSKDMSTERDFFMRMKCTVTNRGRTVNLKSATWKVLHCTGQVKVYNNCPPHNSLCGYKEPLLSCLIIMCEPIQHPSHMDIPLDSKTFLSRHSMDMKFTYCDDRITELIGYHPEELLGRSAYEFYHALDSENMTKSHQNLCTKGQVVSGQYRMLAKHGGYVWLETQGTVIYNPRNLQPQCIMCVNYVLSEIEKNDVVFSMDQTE
T5 sequence (P27540 356-474): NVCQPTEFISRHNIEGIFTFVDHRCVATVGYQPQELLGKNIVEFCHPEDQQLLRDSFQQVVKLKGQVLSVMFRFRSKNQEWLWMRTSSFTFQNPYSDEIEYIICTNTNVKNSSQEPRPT
T4 sequence (Q99814 240-350): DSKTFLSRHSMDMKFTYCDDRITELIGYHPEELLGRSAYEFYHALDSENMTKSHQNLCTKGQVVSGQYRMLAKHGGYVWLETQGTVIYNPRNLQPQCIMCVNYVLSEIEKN
T6 sequence (Q99814 1-360 limits assumed): as the sequence (Q99814 1-360) above

B1: cyclo-CKLIIF (SEQ ID NO 2) (peptide)
peptide: CKLIIF
modifications: cyclic peptide (first amino acid joined to the last)
Regarding B1, the half-inhibitory concentration (IC50) in data set [1] turned out to be 3.7 µM; in data set [2], 8.8 µM. The ΔTm was -1.5 ° C in data set [3]; -1 ° C in data set [4]; -2.5 ° C in data set [5]; -2.5 ° C in data set [6]; -0.5 ° C in data set [7]. In addition, the equilibrium dissociation constant (Kd) was found to be 4.6 µM in data set [8] and 2.5 µM in [9].

B2: cyclo-CRLLIF (SEQ ID NO 3) (peptide)
peptide: CRLLIF
modifications: cyclic peptide (cyclo-, first amino acid joined to the last)
notes: One of the 4 cyclic peptide hits of the SICLOPPS screen; made by solid phase synthesis; also called CRLLIX where X = F
In the case of B2, the IC50 in data set [10] turned out to be 98.3 µM; in [11], 71.3 µM; in [13] it was 102 µM; in data set [15], 186 µM. Moreover, the ΔTm was 0.5 ° C in data set [3]; -2 ° C in [4]; -4 ° C in data set [5]; -4 ° C in [6]; -1 ° C in data set [7]. The Kd in [12] stood at 36.9 µM; in data set [14], 15.4 µM; in [8], 59.6 µM; in data set [9] it was 13.5 µM.

B3: cyclo-CRVIIF (SEQ ID NO 4) (peptide)
peptide: CRVIIF
modifications: cyclic peptide (cyclo-, first amino acid joined to the last)
notes: also called Compound C
For the molecule B3, the IC50 in data set [16] was determined as 15.2 µM; in [13], 115 µM; in data set [17] it was 5.4 µM; in data set [15], 244 µM. The ΔTm was -1 ° C in [3]; -1.5 ° C in data set [4]; -2.5 ° C in data set [5]; -2 ° C in data set [6]; -0.5 ° C in data set [7]. The values for the dissociation constant (Kd) in data set [8] and in [9] were 133 µM and 158 µM, respectively.

B4: CAVIIF (peptide)
peptide: CAVIIF
notes: also called alanine scan peptide of CRVIIF, position 2 (R to A)
Turning to B4, the IC50 came out at 112 µM in data set [18] and 22.3 µM in data set [19].

B5: CRVIIA (peptide)
peptide: CRVIIA
notes: also called alanine scan peptide of CRVIIF, position 6 (F to A)
For the molecule B5, the half-maximal inhibitory concentration (IC50) in [20] was 110 µM; in [21], 37.1 µM.
